From publication PMC4372080 (Nature, 2014)

Molecular target: T1, TmrA-A591C (Thermus thermophilus, UniProt Q72J05 1-600, A591C)
T1 sequence (looked up): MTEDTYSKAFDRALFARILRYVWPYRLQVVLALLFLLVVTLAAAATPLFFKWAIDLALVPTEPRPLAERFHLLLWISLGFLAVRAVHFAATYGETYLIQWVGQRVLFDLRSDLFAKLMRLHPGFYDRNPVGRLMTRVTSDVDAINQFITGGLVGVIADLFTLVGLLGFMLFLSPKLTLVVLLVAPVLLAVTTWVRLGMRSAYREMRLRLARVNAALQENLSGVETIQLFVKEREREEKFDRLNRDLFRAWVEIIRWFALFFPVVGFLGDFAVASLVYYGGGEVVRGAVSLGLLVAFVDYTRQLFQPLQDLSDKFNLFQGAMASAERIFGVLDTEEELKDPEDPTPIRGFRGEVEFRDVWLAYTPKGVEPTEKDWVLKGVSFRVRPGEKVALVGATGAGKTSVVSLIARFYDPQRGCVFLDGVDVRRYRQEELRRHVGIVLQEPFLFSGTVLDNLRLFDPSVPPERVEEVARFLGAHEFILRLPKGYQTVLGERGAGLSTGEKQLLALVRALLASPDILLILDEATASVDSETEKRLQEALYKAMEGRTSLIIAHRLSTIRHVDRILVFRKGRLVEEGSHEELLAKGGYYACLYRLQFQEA
Test: cross-linking

binding result: binds
B1: TmrB-A567C (natural protein, Thermus thermophilus, UniProt Q72J04 1-578, looked up)
chain: MTGRSAAPLLRRLWPYVGRYRWRYLWAVLAGLVSIFFFVLTPYFLRLAVDAVQAGRGFGVYALAIVASAALSGLLSYAMRRLAVVASRQVEYDLRRDLLHHLLTLDRDFYHKHRVGDLMNRLNTDLSAVREMVGPGILMGSRLSFLVLLAFLSMYAVNARLAFYLTLILPGIFLAMRFLLRLIDRRYREAQEVFDRISTLAQEAFSGIRVVKGYALERRMVAWFQDLNRLYVEKSLALARVEGPLHALLGFLMGFAFLTVLWAGGAMVVRGELSVGELVQFNAYLAQLTWPILGLGWVMALYQRGLTSLRRLFELLDEKPAIRDEDPLPLALEDLSGEVRFEGVGLKRDGRWLLRGLTLTIPEGMTLGITGRTGSGKSLLAALVPRLLDPSEGRVYVGGHEARRIPLAVLRKAVGVAPQEPFLFSETILENIAFGLDEVDRERVEWAARLAGIHEEILAFPKGYETVLGERGITLSGGQRQRVALARALAKRPKILILDDALSAVDAETEARILQGLKTVLGKQTTLLISHRTAALRHADWIIVLDGGRIVEEGTHESLLQAGGLYCEMDRLQKEVEA
